We go through six molecules from US20250320277A1.

Assay [1] has as its target CHIKV p62-E1 (Chikungunya virus). As to the kind of experiment: ELISA, plate-coated p62-E1, eight-point mAb dilution.
In assay [2] the target is MAYV p62-E1 (Mayaro virus (BeAr 20290)). Described as above.
The target of assay [3] is CHIKV p62-E1 (Chikungunya virus). The assay is described as follows: BLI, […], global 1:1 fit; […].
For assay [4] the target is unchanged.
Assay [5] has the same target. As to the kind of experiment: BLI, mAb on anti-human Fc sensor.

B1: DC2.M17 (antibody, V domains shown)
VH: EVQLVESGSELKKPGASVRVSCEASGYSFTSHTIVWMRQAPGQGLECLGWINTNTGNPTYAQGFTGRFVFSLDTSVSTAYLQISSLKAADTAVYYCARVLKCLGGSASCSGHGYYDYGMAVWGQGTTVTVSS
VL: DIVLTQSPLSLPVTPGEPASISCRSSQSLLHSNGYNFLHWYLQKPGQSPQLLIYLGSIRASGVPDRFSGSGSGTDFTLKISRVEAEDVGVYYCMQALQTFMYTFGQGTKLEIK
In assay [1], B1 gave an EC50 of 0.9 nM.

B2: DC2.M342 (antibody, V domains shown)
VH: QVQLVQSGAEVKKSGSSVTVSCKASGSTFISHAISWVRQAPGEGLEWMGRLIPVSGTPKYAHKFQGRLTITADDSTTTVYLTLRSLRFEDTAVYYCATWDADSTTLLYYFMDVWGKGTTVTVSS
VL: DIQVTQSPSTLSASVGDRVTITCRASQSISRWLAWYQQKPGKAPKLLIYKASSLESGVPSRFSGTGSGTEFTLTISSLQPDDFATYYCQQYNSYSTWTFGQGTKLEIK
On to B2, for which the EC50 came to 35 nM in assay [1] and 130 nM in assay [2].

B3: DC2.M287 (antibody, V domains shown)
VH: EVQLVESGGGLVQPGGSLRLSCAASGFTFRDYWMIWVRQTPGKGLEWVANINRNGNEKHYVDSLKGRFTISRDNTKNSLYLQVNGLSAEDTAVYYCVRDSSPSFGPGNYYDAFDIWGQGTTVTVSS
VL: DIRVTQSPSSLSASVGDRVTITCRASQDIRNEVGWYQQKPGQAPKVLIFAASTLQSGVPSRFRGSGSGTVFTLTISSLQPEDLATYYCLQDFNYPRTFGQGTKVDIK
As for B3, the EC50 in assay [1] came to 43 nM. This lies in the double-digit nanomolar range.

B4: DC2.M301 (antibody, V domains shown)
VH: QVQLVQSGAEVKKPGAAVKVSCKASGYTFSGYYIHWVRQAPGQGLEWMGWINPNSGGTDFAQKFQGRVTMTRDTSISTAYMELSRLRSDDTAVYLCSRDPGYTYGYPLGYWGQGTLVTVSS
VL: ETTLTQSPGTLSLSPGERATLSCRASQSVSSSYLAWYQQKPGQAPRLLIYGTSSRATGIPDRFSGRGSGTDFTLTISRLEPEDFAVYYCQQYGNSPPYTFGQGTKVDIK
In assay [1], B4 came in with an EC50 of 0.88 nM. In assay [3], the Kd turned out to be 1.6 nM. In assay [4], this molecule came in with a kon of 260000 M⁻¹ s⁻¹. Besides, the fold higher binding affinity for CHIKV p62-E1 than MAYV p62-E1 in assay [5] came out at 10 fold.

B5: DC2.M5 (antibody, V domains shown)
VH: EVQLVESGGGLVQPGGSLSLACEVSGFILSDHYIDWVRQAPGKGLEWVGRSRNKAKRYTTEYAASVKGRFTISRDDSNNSLYLLMKSLKTEDTAVYFCTRAGYYDKNGDSLDALDIWGQGTMVTVSS
VL: DIQVTQSPSSLSASVGDRVTITCRTSQTVSSNLNWYQQRPGKAPKLLISGISDLHSGVPSRFSGSGSGTDSTLTISSLQPEDSATYYCQQSYSLPRTFGQGTKVEIK
In the case of B5, the results for the EC50 in assay [1] and in assay [2] were 33 nM and 39 nM, respectively.

B6: DC2.M336 (antibody, V domains shown)
VH: QVQLVQSGGRLVKPGGSLRLSCAASGFTIIDSYMSWIRQAPGKGLEWISYINPSGSVIYYSDSVKGRFISSRDNAKNSVYLQLSSLRAEDAAVYYCARGIYDQSDAFDLWGQGTTVTVSS
VL: DIVLTQSPSSLSASVGDRVTITCRASQGISNSLAWYQQRPGKAPKLLIYGASRLGSGVPSRFSGSGSGADYTLTISGLQPEDFATYYCQQYYITPPMTFGPGTKVDIK
Turning to B6, the EC50 in assay [1] turned out to be 0.9 nM; in assay [2], 12.5 nM.
